Tests used:
[1] = TER of confluent monolayers on Transwells; conditions: glycan lost; control: wild type E-cadherin (E-cad-myc)
[2] = anti-CNX Western blot normalised to actin; conditions: glycan lost; control: mock-transfected cells
[3] = Western blot normalised to ZO-1 or claudin-1; conditions: glycan lost; control: wild type E-cadherin (E-cad-myc)
[4] = confocal immunofluorescence, x-z sections; conditions: glycan lost; control: wild type E-cadherin
[5] = ZO-1 immunoprecipitation, Western blot; conditions: glycan lost; control: wild type E-cadherin (E-cad-myc)

B1: E-cadherin: V13 (protein)
parent chain: MGPWSRSLSALLLLLQVSSWLCQEPEPCHPGFDAESYTFTVPRRHLERGRVLGRVNFEDCTGRQRTAYFSLDTRFKVGTDGVITVKRPLRFHNPQIHFLVYAWDSTYRKFSTKVTLNTVGHHHRPPPHQASVSGIQAELLTFPNSSPGLRRQKRDWVIPPISCPENEKGPFPKNLVQIKSNKDKEGKVFYSITGQGADTPPVGVFIIERETGWLKVTEPLDRERIATYTLFSHAVSSNGNAVEDPMEILITVTDQNDNKPEFTQEVFKGSVMEGALPGTSVMEVTATDADDDVNTYNAAIAYTILSQDPELPDKNMFTINRNTGVISVVTTGLDRESFPTYTLVVQAADLQGEGLSTTATAVITVTDTNDNPPIFNPTTYKGQVPENEANVVITTLKVTDADAPNTPAWEAVYTILNDDGGQFVVTTNPVNNDGILKTAKGLDFEAKQQYILHVAVTNVVPFEVSLTTSTATVTVDVLDVNEAPIFVPPEKRVEVSEDFGVGQEITSYTAQEPDTFMEQKITYRIWRDTANWLEINPDTGAISTRAELDREDFEHVKNSTYTALIIATDNGSPVATGTGTLLLILSDVNDNAPIPEPRTIFFCERNPKPQVINIIDADLPPNTSPFTAELTHGASANWTIQYNDPTQESIILKPKMALEVGDYKINLKLMDNQNKDQVTTLEVSVCDCEGAAGVCRKAQPVEAGLQIPAILGILGGILALLILILLLLLFLRRRAVVKEPLLPPEDDTRDNVYYYDEEGGGEEDQDFDLSQLHRGLDARPEVTRNDVAPTLMSVPRYLPRPANPDEIGNFIDENLKAADTDPTAPPYDSLLVFDYEGSGSEAASLSSLNSSESDKDQDYDYLNEWGNRFKKLADMYGGGEDD
other: transepithelial resistance [1]: increases | other: calnexin expression (UPR marker) [2]: no change | other: Ser-phosphorylation of ZO-1 and claudin-1 [3]: increases | other: apical localisation of gp135 and ZO-1 [4]: increases | other: claudin-1 in ZO-1 complexes [5]: increases
